Experiment: soluble on expression in E. coli; label from the status in PepcDB or PDB records

Row | Sequence | soluble on expression in E. coli
1 | MASIADAIGKILTAHSPYPAVVVDRHWNMVDANDAVAVLTEGCAAELLEPPVNVLRLSLHPDGMAPRILDLAQWRGHLLHRLRHQIAVTGDDGLRDLLRELEGYPGGTVGSAELPGSLVVPLRIRHHETVLAFLSTTTMFGTPLDVTVAELAIESFFPADAVTAATLRSSVSSD | soluble
2 | MASISEKMVEALNRQINAEIYSAYLYLSMASYFDSIGLKGFSNWMRVQWQEELMHAMKMFDFVSERGGRVKLYAVEEPPSEWDSPLAAFEHVYEHEVNVTKRIHELVEMAMQEKDFATYNFLQWYVAEQVEEEASALDIVEKLRLIGEDKRALLFLDKELSLRQFTPPAEEEK | soluble
3 | MASLCNSIIGWIKNDKEVRLRKRGDTSRRDAVEAGFEPRDTVPRCHSTQSLRDVQRVRSYNNSQFQASDLSLNPNGSIRAACDSTSGSVAPTAVVNPARNHVISHRQQHHTSYEKDLIPHHNIDVDRRRSLQALNGSSALYQLNNGGSPNGVRSQFSPSDLSIHTPVHHVGSRVRVSSVNQICDSNSAPQFSIDQRRSVHNIGNPVRNSFVDGIKTTSTPKNQIAVAPLAHKSRHLSESRDEMRGGAERRGSGGQMNLPAYTNYLIRHSGEERLVDGPVTNASDARIAYLEKRIRELELTQKEQSSHSTPSQSRHSSSKSSHFNGSSNLSTSEQLRLQEMSDELANKDRKVTSLESKLLKAYQRIERLNEEYDGKIKNLMYDSERARDDLTRCVDKIQQLENELDETRAAVQNGDHANEQEYHELRDKIWKQERELQESRTLLTRLREKEAEFERMRSEKGYLELKNENLNKKLEAKKRAVEELERSVSTLRLEQTICQQSCSSGSTPLADEMEIMSDIRPSLARPYTKAHSTLGSHNMSPLSHSKSSGLTKSFSNFALNSSKQRDDITANMSRSIREQNRHITMCRAMVVCLKDTVDRMARGENPDVARLLGVKLNVMSESEMEDDEDHEADASQPFSMMSAESALSKQCGKLADLDKDLDTIRCQLADWHGQTNAEGDGDRDVCRVQ | not soluble
4 | MASMNDFIGRWKLVQTENFDEYMKEIGVGLITRKAAAHLKPILEIRLDGETWNFDQFSTFKNTKLSFKLGEEFVENSPDDRTYNSLFTFENGKLTHRQNKIKENHKSSVLTTWLENGKLIQTYQSGDVICRREWERE | not soluble
5 | MASMTGGQQMGRGSGIVQQQSNLLRAIEAQQHLLQLTVWGIKQGGGGSEWEREISNYTDIIYRLIEESQNQQEKNEQELLALDKWASLWNWFDITNWLWYIQHHHHHH | soluble
6 | MASPSKAVIVPGNGGGDVTTHGWYGWVKKELEKIPGFQCLAKNMPDPITARESIWLPFMETELHCDEKTIIIGHSSGAIAAMRYAETHRVYAIVLVSAYTSDLGDENERASGYFTRPWQWEKIKANCPYIVQFGSTDDPFLPWKEQQEVADRLETKLHKFTDCGHFQNTEFHELITVVKSLLKVPALEHHHHHH | soluble
7 | MASRGLDLWLDEHVWKRKQEIGVKGENLLLPDLWLDFLQLSPIFQRKLAAVIACVRRLRTQATVYPEEDMCMAWARFCDPSDIKVVILGQDPYHGGQANGLAFSVAYGFPVPPSLRNIYAELHRSLPEFSPPDHGCLDAWASQGVLLLNTILTVQKGKPGSHADIGWAWFTDHVISLLSERLKACVFMLWGAKAGDKASLINSKKHLVLTSQHPSPLAQNSTRKSAQQKFLGNNHFVLANNFLREKGLGEIDWRL | soluble
8 | MASVGIFFGSDTGNTEAIAKMIQKQLGKKLVHVQDIAKSSKEDINNFDLLLLGIPTWYYGEAQCDWDDFFPELEAIDFSTKLVAIFGCGDQEDYAEYFCDAMGTVRDIIQAKGATIVGHWPTEGYEFEASKALVDENHFVGLCIDEDRQPELTEQRVTKWVNQVYEEMCLAELED | not soluble
9 | MASVTEQFNDIISLYSTKLEHTSLRQDSPEYQGLLLSTIKKLLNLKTAIFDRLALFSTNETIDDVSTASIKFLAVDYYLGLLISRRQSNDSDVAQRQSMKLIYLKKSVESFINFLTLLQDYKLLDPLVGEKLGNFKDRYNPQLSELYAQPKNNKDLSGAQLKRKEKIELFQRNKEISTKLHCLELELKNNDEDHDHDELLRELYLMRLHHFSLDTINNIEQNLFECEMLSNFLK | soluble
10 | MASYSEDQCSWRGSGLSQAVKNVEQVWLRCAEGSVEWLYPAGALRLTLSPRLPWSAMGPGESSRSPVSVCVKPDPHWGGAQLYLERDGVLELLVGDETSTTPGPAHVRCFSALPGERPALFLQATPHRDISRRIAAFRYELRGDWTAQPAVNTDPVSSEGACRPCNNTEILMAVCTSDFVVRGNIRSVGTDSNLNAAVIKVSATRVYRQKFALFPESGRLTRSGEIRTPLQCGVRPGAGSFLFTGRVHFGEAWLGCAPRYKDFLKAYEQAKQSLMIPCTLVND | not soluble
11 | MATAETSVLIGYLSDYGYSDRLSQAIGRGLVKTGVAVEMVDLRAVDPQELIEAVSSARGIVLGTPPSQPSEAVATALSTIFAAAHNKQAIGLFDSYGGDDEPIDALLAQFRNLGLHTAFPPIRVKDQPTEAIYQQCEESGTDLGQWLTRADAIQTMKSLEHHHHHH | not soluble
12 | MATHKPINILEAFAAAPPPLDYVLPNMVAGTVGALVSPGGAGKSMLALQLAAQIAGGPDLLEVGELPTGPVIYLPAEDPPTAIHHRLHALGAHLSAEERQAVADGLLIQPLIGSLPNIMAPEWFDGLKRAAEGRRLMVLDTLRRFHIEEENASGPMAQVIGRMEAIAADTGCSIVFLHHASKGAAMMGAGDQQQASRGSSVLVDNIRWQSYLSSMTSAEAEEWGVDDDQRRFFVRFGVSKANYGAPFADRWFRRHDGGVLKPAVLERQRKSKGVPRGEA | soluble
13 | MATISSLGSSGLELEGILEKLQAAEEKKLTLITARQASYETRISAYSKIQAAVEAVQKAAATLGSIDTLSAVKAVVSGDGLSVKTAAGAVPGQYTVNIDKLATAQNLQSGELDSRTDKHGTGGSIEIVQKDGTTTTVTLGEDTSLNGIVKAINGTDGLDVRATVISDGNGKHYLMLNNKTEGTEAAVTRITVSGNQEVADILDFDAANAGASNLTVQLAAQKAELTINGIPVVSDTNTVETAIDGLTLTLTKQTAAPLTVTVSSDPSVAATAVNDFVKAYNGLQTTIADLTAFDVKAEKQSALTGDGTTRNIQSAIAAALRVATGEGTLRTLSQLGITTDPKTGSLKTDTEKLEAALRDNPADVARIFSGPFGLGEKVKLATEQILGDEGSIKIRQEGLEETLESLQNQYDRQKLSIAATIEAYRKQFVQLDVFVTQMNNTSNYLSQQFAALSGTKK | not soluble
14 | MATITDNDVALTITKIHQIQGSGTAFNSAFGGIRTIEGVVVAAFPGGSGLNGFFVQEEDADTDNDSTTSEGIFVFDPTGQFSGSVGDKVRVTGSVSEFSTNNGVSSLTQLSSVSSIINLGADILPKMSNIQLPVTTVADLERYEGMRVNISAGNGDLTVTEHFQLGRFGQVVLSATGTSNQPGTDGRLEQYTQFNDPSVAGYAAYLDEIAKRRIILDDGSSTQNPATIIFGRGGEPLSATNTLRGGDTVASITGVLDQRFEGYRVQTSTGVDFTPANPRPATTPDVGGTLKVASFNVLNYFNGDLEHHHHHH | not soluble
15 | MATKKATMIIEKDFKIAEIDKRIYGSFIEHLGRAVYGGIYEPGHPQADENGFRQDVIELVKELQVPIIRYPGGNFVSGYNWEDGVGPKEQRPRRLDLAWKSVETNEIGLNEFMDWAKMVGAEVNMAVNLGTRGIDAARNLVEYCNHPSGSYYSDLRIAHGYKEPHKIKTWCLGNEMDGPWQIGHKTAVEYGRIACEAAKVMKWVDPTIELVVCGSSNRNMPTFAEWEATVLDHTYDHVDYISLHQYYGNRDNDTANYLALSLEMDDFIRSVVAIADYVKAKKRSKKTIHLSFDEWNVWYHSNEADKLIEPWTVAPPLLEDIYNFEDALLVGCMLITLMKHADRVKIACLAQLVNVIAPIMTEKNGPAWKQTIYYPFMHASVYGRGVALHPVISSPKYDSKDFTDVPYLESIAVYNEEKEEVTIFAVNRDMEDALLLECDVRSFEDYRVIEHIVLEHDNVKQTNSAQSSPVVPHRNGDAQLSDRKVSATLPKLSWNVIRLGKR | soluble
16 | MATLEQKLTVLISDTIESMGYELVGVECQHAGRFLTVRLYIDKEGGVTIDDCSDVSRQVSAIFDVEDPISDKYNLEVSSPGLDRPLFTLAHYARFVGREMVIHLRIPMFDRRKWQGKLTKVDGDLISLEIENNGEHQFIFSNIQKANLIPVFDF | not soluble
17 | MATPLWQTIYNNAVLLPESPKAIVHFLGGAFIAAAPQVTYRRLLEGLGDRGFAVIATPFINTFDHTTLADEVGRSYRLAYERLLALGLISPELPIFGVGHSMGSKLHLLMGCAQTSDRRGNVLLAFNNYSARRSIPLLGQLAPALDVTVEFSPSPARTLRLIRDRYSVANNLLVKFRNDEIDQTRDLIGALRDRFPETSEWLRLSGNHLTPVGQSLPQQTGLAWLDGVSQLASRELGRDLEVVTTAIADWCDRQLTAPATVVLEHHHHHH | not soluble
18 | MATTPETMENHAFDADMSFESALENYLSSDFGDLEEGSIVKGEIVRLGDDYVLVDVNFKSEGQIAANEFRDANGDLIIGVGDRVDVFVVRKNEMEGTITLSYEKAKRMQLFDQLEEVQEKNGVIKGRIVRRIKGGYTVDLGGVEAFLPGSHVDLRPVPDMDALVNQEYEFRVLKINRRRSNVIVSRRVLLEEERDSKRQDLLRTLEEGQVVKGKAKNITEYGVFVDLGGLDGLLHITDMSWKRIRHPKELVSLGQELELKVLSFDRDSQKVSLGMKQLVADPWQDITAKFPEGLRGQGKVTNLVDYGAFVELEPGVEGLVHISEMSWTRKLRHPSQMVRVGDEVEVVILGVDPDKKRISLGMKQVKPNPWEVVAEKYPEGTILEGVIKNITEFGMFIGIEDGIDGLIHVSDISWTKKIRHPNEMYKVGDVVQAKVLTVDQENEKFTLGVKQLAEDPWSRVPATYPVGTLVTGSVTNITDFGLFVEVEEGIEGLVHVSEISQKKIKSPSEIYKEGQEIQAKVIHVSAEERRLGLSIKQLKDEEERRKPKEFRSGSPEVGGQTLGDILKLKLEEDAADNLEHHHHHH | not soluble
19 | MATVKIKFRPSSVDGKEGTVYYQVIHVRVARQISTSYRLFPAEWDKRRARIVAAPSDEGRRQHLSLLEGKIMEDTDRLEGIITTLERRRGAFTADDVVSAFNGGHYSLSFPVFMREVINGLKRLGKIRTSETYTSTLNSFIRFMEGRDVLPDDMDSDLMVAYEAWLESGGVSMNTISFYMRNLRAVYNRAVEKGLTVQRFPFKHVYTGVEKTTKRAVPLHVIKRLKSLDLSFEPAKAYARDMLLFSFYTRGMSMVDMAFLKKKDLNNGILSYRRKKTGQQLLIKWEPCMQEIVDRYNIPGSPYLLSVIDRPGTDERKQYINASHRINRHLKVLGKELGMSVPLTHYVARHSWASAARSKNIPISVISEGMGHDSETTTRIYLASLDTATIDRANKLILKSLQI | not soluble
20 | MAVLKIISWNVNGLRAVHRKGFLKWFMEEKPDILCLQEIKAAPEQLPRKLRHVEGYRSFFTPAERKGYSGVAMYTKVPPSSLREGFGVERFDTEGRIQIADFDDFLLYNIYFPNGKMSEERLKYKLEFYDAFLEDVNRERDSGRNVIICGNFNTAHREIDLARPKENSNVSGFLPVERAWIDKFIENGYVDTFRMFNSDPGQYTWWSYRTRARERNVGWRLDYFFVNEEFKGKVKRSWILSDVMGSDHCPIGLEIELLEHHHHHH | soluble
21 | MAVLWRLSAVCGALGGRALLLRTPVVRPAHISAFLQDRPIPEWCGVQHIHLSPSHHSGSKAASLHWTSERVVSVLLLGLLPAAYLNPCSAMDYSLAAALTLHGHWGLGQVVTDYVHGDALQKAAKAGLLALSALTFAGLCYFNYHDVGICKAVAMLWKL | not soluble

Source: the DeepSol protein solubility set
